Test results from US12624096B2, “Anti-tau antibodies and methods of use thereof” (GTInvent Limited, priority 2020, dated 2026).
“Also recorded” adds a separate entry of the source.

Legend:
[1] = target: T1, dGAE aggregates (Homo sapiens, UniProt P10636); assay: Epitope occlusion sandwich ELISA (423 mAb capture) of dGAE aggregated with/without LMTM; assay type: binding; details: LMTM 1:5 ratio
Experimental: During dGAE aggregation in vitro, scAb binding regions on dGA/dGAE are ‘hidden’ or ‘occluded’ which leads to a loss of immunoreactivity in aggregation samples. Here we have shown the occlusion of binding regions in aggregated dGAE samples and the recovery of immunoreactivity in the presence of LMTM, a tau-aggregation inhibitor. For preparing the aggregates, 10 μl 10 mM DTT was added to 1000 μl 100 μM dGAE and agitated with/without LMTM (1:5 ratio) at 700 rpm for 24 h at 37° C. […] The pellet was then resuspended in half the original volume for further experiments. […] Doubling dilutions of dGAE aggregate ‘total’, ‘supernatant’ and ‘pellet’ samples at 10 μg/ml starting concentration were added to designated wells in doubling dilutions in 1×PBS, dGAE monomer (non-aggregated) was included as assay control. All double dilutions were done in final volumes of 100 μl. This was left to incubate on lab bench for 1 h followed by the addition of test scAbs at 10 μg/ml. Anti-HuCk HRP labelled secondary antibody was added as described previously and ELISA data generated is represented using the graph below.

[2] = system: plasma tau; assay: Plasma tau (Simoa) in L66+/- mice treated with LMTM; assay type: in vivo, mouse
Experimental: The effect of the tau aggregation inhibitor LMTM on the levels of plasma tau in a L66^+/− mouse line was investigated with two assays, both utilising the 3-step Simoa® protocols described above. Using the human specific NT1 assay (BT2 capture with Tau12 detection), low levels of tau (0.41±0.09 pg/ml) were detected in the plasma of 5-month-old L66^+/− that were treated with vehicle control solution (FIG. 50A). At the same time, an increase in tau levels was measured in the plasma of L66^+/− mice that had received an oral administration of LMTM (15 mg/kg) during the time period (1.28±0.11 pg/ml).
This hypothesis was supported by our core-proline antibody assay in which S1D12 antibody coated capture beads and BT2 detector was used (FIG. 50B). This assay detects both human and mouse tau which explains the higher levels of tau detected.

[3] = target: dGAE (Homo sapiens, UniProt P10636); assay: Thioflavin T dGAE aggregation inhibition assay; assay type: biochemical; details: 10 μM test protein; 100 μM dGAE, 10 mM DTT, 24 h
Experimental: By incubating 100 μM dGAE and 10 mM DTT at 37° C., on a thermomixer at 700 rpm for 24 hours, “pathology mimicking” aggregates which have the morphology of paired helical filaments are formed. This aggregation can be quantified by adding a final concentration of 12.5 μM Thioflavin T (fluorescent dye) which binds to fibril-like β-sheets. Fluorescence was measured with a constant emission wavelength of 480 nm and a scanning excitation wavelength of 350-470 nm using a Varian Cary Eclipse fluorescence spectrophotometer. Maximal fluorescence measurements were used as an indicator of dGAE aggregation (approximately 450 nm excitation). The assay was optimised using a range of S1D12 scAb concentrations (0.04 to 25 µM) and tested for levels of aggregation inhibition as shown in FIG. 35.
Based on FIG. 35, 10 μM scAb was deemed an adequate concentration to compare and rank individual scAb-mediated dGAE aggregation inhibition events. […] A similar inhibition (40%) was seen using 10 μM bovine serum albumin as a negative control (data not shown).

[4] = target: T2, human tau (Homo sapiens, UniProt P10636, G652D/P618S); assay: Western blot ratio of human to mouse tau in L66+/+ brain after 6-week S1D12 mAb therapy; assay type: in vivo; details: L66+/+ mice, 30 mg/kg i.p. weekly for 6 weeks vs vehicle, S1G2 detection
T2 construct: sample A with 5 nM full length human tau (hT40); from tissue; host or cells: brain homogenate of L66+/+ transgenic mice expressing the human tau transgene
Experimental: (§1) In a six-week repeat-dose study, a total of 12 WT, 12 Line 1 (L1) and 12 Line 66 homozygotes (L66+/*) female mice aged 2-months at the beginning of the study were used (Table 32 for group size). Mice in each genotype were injected intraperitoneally (i.p.) with either vehicle or S1D12 (30 mg/kg), once per week, for six consecutive weeks.
A hemisphere of each Line 66^+/+ mouse brain was suspended in RIPA buffer and homogenised. Samples were left on ice for 1 hour and subsequently centrifuged for 10 minutes at 10,000×g at 4° C. The supernatant was collected, and the total protein was quantified using a BCA Protein Assay Kit. Brain homogenate supernatant from each mouse was separated via sodium dodecyl sulphate polyacrylamide gel electrophoresis (SDS-PAGE) with MES running buffer. […] Following washing, the secondary antibody, sheep anti-mouse IgG-HRP, was added, and the membrane was washed five times with PBST and developed with Clarity Western ECL Substrate and read using a BioSpectrum Gel imaging System (UVP). Results were analysed using ImageJ-Fiji (NIH, Version 1.53) where densitometric analysis was performed and the ratio of human to mouse tau densities was calculated.

[5] = target: T1, dGAE aggregates; assay: Sandwich ELISA on SDS/Triton X-100 treated dGAE aggregates; assay type: binding; details: S1D12 mAb capture, S1G2 scAb detection; SDS + Triton X-100 treated
Experimental: For aggregation, 1000 μL 100 μM dGAE+10 μL 10 mM DTT was added to a ‘LoBind’ microfuge tubes and agitated at 700 RPM/37° C., for 24 hours. Resulting sample centrifuged at 17,000×g/4° C., for 60 min and supernatant discarded to remove left over monomer. Pellet resuspended in half the original volume for future experiments and hereafter referred to as ‘aggregates’. 1 μl of aggregates was added to 1 ml of PBS and SDS was added to a final concentration of 1% (w/v). This was left to incubate on lab bench for 1 h with gentle agitation every 15 minutes. In order to neutralise the SDS effect on ELISA, Triton X-100 added to a final concentration of 3% (v/v) and mixed gently by pipetting to prevent any bubble formation. […] Similarly aggregates treated with only SDS or Triton X-100, untreated aggregates, dGAE monomers treated with only SDS or SDS+Titon X-100 were also added to designated wells as controls. All samples were then double diluted across the plate in final volumes of 100 μl. The final column was left with no protein to act as a blank. This was allowed to stand at room temperature for 1 hour followed by the addition of detection scAb-S1G2 at 10 μg/ml. Anti-HuCk HRP labelled secondary antibody was added as described previously and ELISA data generated was represented using the graph below. In addition, limits of detection (LoD) of various core binding antibody pairing for SDS Triton X-100 treated dGAE aggregates were calculated using the above describe ELISA method and substituting capture mAbs and detection scAbs as shown in Table 30.

[6] = system: plasma tau; assay: Plasma tau (Simoa) after S1D12 immunotherapy; assay type: in vivo, mouse; design: plasma tau, core and proline region pairing (S1G2-BT2) / plasma tau, proline region pairing (BT2-HT7): unit not given here
Experimental: as §1
Three-step assays were performed and analysed as per previously described plasma screening methods in this document.

[7] = target: aggregated dGAE (Homo sapiens, UniProt P10636); assay: Capture ELISA ranking of mAbs on dGAE aggregates; assay type: binding; details: 1 μg/ml capture mAb, 800 nM aggregated dGAE
Experimental: The aggregation cascade of natively unfolded tau into insoluble filaments is a defining pathological feature of AD. Therefore, it is logical to target aggregated tau filaments for both therapeutic and diagnostic purposes. The following experiment was performed to assess the ability of our dGA mAb panel to bind aggregated dGAE using a capture ELISA method. Aggregates were prepared by incubating 100 μM dGAE and 10 mM dTT for 24 h at 37° C. with shaking at 700 RPM. The following day, dGAE aggregates were centrifuged at 17,000×g for 20 min and the supernatant was removed. The remaining pellet was washed with 10 mM phosphate buffer and centrifuged as above. Washing was repeated a further two times to remove any remaining dGAE monomer. The dGAE pellet was resuspended in 100 μl of 10 mM phosphate buffer. (Using a separate capture ELISA based quantification, we have worked out the efficiency of our dGAE aggregation as 80%)
For assessing the mAb panel for aggregate binding, designated rows of a maxisorp plate were coated with 1 μg/ml of each of the capture mAbs (S1D12, S1G2, CA4, NS2A1, CE2, E2E8 and CB7) and blocked as before. Following washing, 800 nM aggregated dGAE was added to the designated wells, double diluted across the plate and incubated for 1 h at RT. The plate was washed again and 1 μg/ml S1G2 scAb was added as detection antibody and incubated for 1 h at RT. To the row where S1G2 mAb was used for capture, […] s1D12 scAb was added as […] instead of S1G2. The assay was developed using HRP labelled HuCK as described previously.

[8] = Six-week repeat-dose study, S1D12 mAb in plasma and brain; assay type: in vivo, mouse
Experimental: as §1
Mice treated with S1D12 were culled seven days after the last dosing whereas vehicle-treated animals were sacrificed the following day, i.e. 8 days post-treatment. Mice were anaesthetized using an overdose of sodium pentobarbital administered intraperitoneally for blood collection. Blood was transferred to plastic vials containing lithium heparin anticoagulant, centrifuged to obtain the plasma and the entire brain was removed as described previously. Plasma and brain samples (stored at −20° C., and −80° C., respectively) were subjected to further biochemical analysis.

[9] = Pharmacokinetic study of S1D12 mAb, single dose, plasma and brain (dGAE ligand binding ELISA); assay type: in vivo, mouse; details: single dose 30 mg/kg i.p., NMRI mice
Experimental: For the PK study, a total of 42 female NMRI mice (Swiss-type mouse, Naval Medical Research Institute) aged 6 months were allocated into six groups according to sample collection time (Table 30 for group size). Animals were injected intraperitoneally with S1D12 (30 mg/kg) and sacrificed 24-, 48-, 72-hours and 7-, 14- and 31-days after injection to collect blood and brain samples. A control group was also included in which animals were sacrificed to collect blood and brain, but no test item was administered.
Blood samples were centrifuged to obtain plasma at 2000×g for 5 min at 6° C., and samples were stored at −20° C. After blood collection, each mouse was perfused with heparinized saline for 2-3 minutes and the entire brain removed rapidly and snap frozen in liquid nitrogen and stored at −80° C.
Briefly, dGAE (1 μg/mL) was used to coat ELISA plates and blocked with 2% Marvel. […] Following washing, HRP-conjugated anti-mouse IgG as detector was added, and the assay developed using TMB solution as normal. The absorbance at 450 nm was read using a Clariostar plate reader (BMG Labtech) and MARS Clariostar software used to calculate S1D12 concentration from a standard curve.
Average values from each group (representing a time point) was plotted (FIG. 10) and the in vivo half-life, Cmax and Tmax calculated by performing a non-compartmental analysis of the plasma data using the PKSolver2.0 software (FIG. 51, Table 31). […] Here a higher coating concertation of dGAE at 10 μg/ml was used to compete off antibody binding to tau present in the brain.

T1 sequence (P10636 614-708): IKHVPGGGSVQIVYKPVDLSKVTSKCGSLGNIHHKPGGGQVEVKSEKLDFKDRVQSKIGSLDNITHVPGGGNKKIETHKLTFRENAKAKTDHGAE
T2 sequence (P10636 1-441 isoform P10636-8 P301S/G335D): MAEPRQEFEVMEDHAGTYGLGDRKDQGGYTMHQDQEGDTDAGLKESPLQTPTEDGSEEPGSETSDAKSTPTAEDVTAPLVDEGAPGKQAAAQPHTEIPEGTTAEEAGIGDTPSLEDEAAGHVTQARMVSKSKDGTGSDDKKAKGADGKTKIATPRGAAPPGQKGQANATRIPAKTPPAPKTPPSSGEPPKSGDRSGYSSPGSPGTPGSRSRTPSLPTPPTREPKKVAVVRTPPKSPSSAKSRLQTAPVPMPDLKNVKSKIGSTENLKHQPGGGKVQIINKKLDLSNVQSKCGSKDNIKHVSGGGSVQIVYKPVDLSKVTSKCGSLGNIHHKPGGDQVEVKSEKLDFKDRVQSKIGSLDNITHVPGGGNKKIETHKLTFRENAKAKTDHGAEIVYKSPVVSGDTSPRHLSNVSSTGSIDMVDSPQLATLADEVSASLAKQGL
Chain of dGAE (P10636 614-708): as the sequence (P10636 614-708) above
Chain of aggregated dGAE (P10636 614-708): as above

CN(C)c1ccc2c(c1)Sc1cc(N(C)C)ccc1N2.CS(=O)(=O)O.CS(=O)(=O)O [LMTM]
effect of LMTM on dGAE aggregation and immunoreactivity [1]: preventing the aggregation event, leading to an increased immunoreactivity
plasma tau, NT1 assay (BT2 capture with Tau12 detection) ([2]; 5-month-old L66+/- mice, oral LMTM 15 mg/kg): 1.28 ± 0.11 pg/mL
plasma tau, core-proline assay (S1D12 capture beads, BT2 detector) ([2]; L66+/- mice, LMTM 15 mg/kg): 142.08 ± 12.08 pg/mL

bovine serum albumin: negative control protein in thioflavin T assay [reference compound]
inhibition of dGAE aggregation [3]: 40%

B1: S1D12 mAb: S1D12 reformatted as mAb, heavy chain SEQ ID NO: 445, light chain SEQ ID NO: 446 (antibody)
heavy: QVQLQESGPSLVKPSQTLSLTCTVSGFSLNNNAVGWVRQAPGKVPESLVGCSSDGTCYYNSALKSRLDITRDTSKNQISLSLSSVTTDDAAVYYCTRGHYSIYGYDYLGTIDYWGPGLLVTVSSAKTTAPSVYPLAPVCGDTTGSSVTLGCLVKGYFPEPVTLTWNSGSLSSGVHTFPAVLQSDLYTLSSSVTVTSSTWPSQSITCNVAHPASSTKVDKKIEPRGPTIKPCPPCKCPAPNLLGGPSVFIFPPKIKDVLMISLSPIVTCVVVDVSEDDPDVQISWFVNNVEVHTAQTQTHREDYNSTLRVVSALPIQHQDWMSGKEFKCKVNNKDLPAPIERTISKPKGSVRAPQVYVLPPPEEEMTKKQVTLTCMVTDFMPEDIYVEWTNNGKTELNYKNTEPVLDSDGSYFMYSKLRVEKKNWVERNSYSCSVVHEGLHNHHTTKSFSRTPGK
light: QAVLTQPSSVSGSLGQRVSITCSGSSSNVGGGNSVGWYQHLPGSGLKTIIYDTNSRPSGVPDRFSGSRSGNTATLTINSLQAEDEGDYYCVTGDSTTHDDLVGSGTRLTVLGGQPKSSPSVTLFPPSSEELETNKATLVCTITDFYPGVVTVDWKVDGTPVTQGMETTQPSKQSNNKYMASSYLTLTARAWERHSSYSCQVTHEGHTVEKSLSRADCS
modifications: S1D12 mAB Heavy Chain; S1D12 mAB Light Chain
ratio of human tau to mouse tau in brain [4]: A decrease in the ratio of human tau to mouse tau; also recorded: A decrease in the levels of human tau was observed
dGAE aggregates detectable in sandwich ELISA [5]: approximately 2 ng/ml
difference in plasma tau vs vehicle, S1G2-BT2 ([6]; L1 and wildtype mice): not statistically significant
plasma tau, core and proline region pairing (S1G2-BT2) ([6]; L66+/+ mice, S1D12 mAb 30 mg/kg weekly for 6 weeks): 1438±275
increase in plasma tau vs vehicle, S1G2-BT2 ([6]; L66 mice): more than a threefold increase
plasma tau, proline region pairing (BT2-HT7) ([6]; L66 mice, S1D12 mAb 30 mg/kg weekly for 6 weeks): 127±55
ability to capture aggregated dGAE [7]: most efficient at capturing aggregated dGAE
increase in S1D12 concentration in plasma following repeat dosing ([8]; WT mice, 30 mg/kg once per week for 6 weeks vs single dose, 7 days post dose): > 3 fold
plasma S1D12 antibody crossing the blood brain barrier ([8]; WT, L1 and L66+/+ mice, 30 mg/kg weekly for 6 weeks): 0.15-0.3%
Tmax in the brain [9]: 48 h
Cmax ([9]; read-out: Cmax in the brain): 6.2 nM
